Measurements from US20040063184A1, “Fermentation processes and compositions” (priority 2002, published 2004).

What was measured:
Assay type in all cases: cell-based
yeast [1] = assay: Example 4: LSF ethanol fermentation with lipases, purified lipases, ferric sulfate; settings: Candida antarctica lipase 400 LU/g DS, purified lipases 100 LU/g DS
Method: Example 4 was conducted on dry milled corn according to a simultaneous liquefaction5 saccharification-fermentation (LSF) protocol. The experiment was carried out on ground yellow corn using a glucoamylase and alpha amylase for fermenting ethanol with and without lipase, as described in examples 2 and 3. Fermentations were carried out at pH=5.0, 32° C. for several hours. In addition to Candida antarctica lipase and inactivated Candida antarctica lipase, feric sulfate and purified lipases from Candida cylindracea lipase and Candida antarctica lipase A, were also compared. Four times less of the purified lipase was used.

yeast [2] = assay: Example 14: LSF ethanol fermentation with and without laccase; settings: additive with glucoamylase: 0.1 M NaCl & 0.7 GAU/g DS, NZ 525 0.5% DS & 0.9 GAU/g DS, laccase 0.2% DS & 1.0 GAU/g DS
Method: The addition of a laccase was tested under anaerobic fermentation conditions analogous to ethanol fermenting experiments. The experiment was conducted on dry milled yellow corn according to a simultaneous liquefaction-saccharification-fermentation (LSF) protocol. The experiment was carried out using a glucoamylase (Spirizyme plus, available from Novozymes A/S) for fermenting ethanol, with and without laccase. Fermentations were carried out at pH=5.0, 32° C. for several hour. The process was monitored with time and analyzed for CO2 weight loss, percent ethanol produced and theoretical conversion of the starch.

yeast [3] = assay: Example 2: LSF ethanol fermentation of ground yellow corn with esterases; settings: esterase 200 U/g DS
Method: Example 2 was conducted on dry milled ground yellow corn according to a simultaneous liquefaction-saccharification-fermentation (LSF) protocol. The experiment was carried out using a glucoamylase (Spirizyme Plus, available from Novozymes A/S) in an amount of 0.8 GAU/g DS and a fungal alpha amylase (SP288, available from Novozymes A/S) in an amount of 2.6 AFAU/g DS for fermenting ethanol along with the addition of:
(A) lipase (LIPOLASE, available from Novozymes A/S),
(B) Candida antarctica lipase,
(C) cutinase (JC 492, available from Novozymes A/S)
(D) phospholipase (LECITASE available from Novozymes A/S),
(E) inactivated Candida antarctica lipase (inactivated by boiling for three hours), and
(F) a control (glucoamylase and amylase without esterase addition).
The esterases were added in an amount corresponding to 200 U/g DS. Fermentations were carried out at pH=5.0, 32° C. for several hours. The process was monitored with time and ana20 lyzed for CO2 weight loss, percent ethanol produced and theoretical conversion of the starch.

Ethanol Red yeast [4] = assay: Example 8: as Example 6 with protease in the fermentation medium
Method: This experiment was carried out using the same experimental conditions and enzyme concentrations described in Example 6, with the exception that protease (Novozyme 50006, 0.007% DS) was also added to the fermentation medium with an increased sample volume.
To eliminate the possibility that a substance in the CALB formulation was contributing to the effect obtained, inactivated CALB was also used. A control was prepared by inactivating CALB by boiling for 3 hours. Upon completion of boiling, the volume was adjusted to the initial value with DI water, and sample was spun down at 3,000 rpm for 20 min. The liquid layer was forced through the 0.45-μm filter. The enzyme was thereby completely inactivated.

Ethanol Red yeast [5] = assay: Example 10: Lipolase 100 T versus purified Lipolase
Method: In this example, Lipolase 100 T and purified Lipolase (both available from Novozymes A/S) were compared. The Experimental conditions were as follows: Ethanol Red yeast, 36% DS, 1.5 GAU/g DS Spirizyme Fuel, 0.8 AFAU/g DS SP 288. Yeast was propagated with maltodextrin and protease. Fermentation was carried out in 25-ml fermentors at 32.2° C. without mixing for 72 h. A control was run as described, without the addition of lipase.

O=S(=O)([O-])[O-].O=S(=O)([O-])[O-].O=S(=O)([O-])[O-].[Fe+3].[Fe+3] [Fe2(SO4)3]
Calculated ethanol, % v/v (yeast [1]; 24 h): 11.58 ± 0.13 % v/v | Efficiency, % (yeast [1]; 24 h): 52.79 ± 0.67% | Calculated ethanol, % v/v (yeast [1]; 48 h): 16.87 ± 0.43 % v/v | Efficiency, % (yeast [1]; 48 h): 81.84 ± 2.57% | Calculated ethanol, % v/v (yeast [1]; 72 h): 18.82 ± 0.91 % v/v | Efficiency, % (yeast [1]; 72 h): 91.00 ± 2.45%

[Cl-].[Na+] [NaCl]
HPLC ethanol, % v/v (yeast [2]; 7 h): 1.88 % v/v | HPLC ethanol, % v/v (yeast [2]; 23 h): 7.91 % v/v | HPLC ethanol, % v/v (yeast [2]; 29 h): 8.78 % v/v | HPLC ethanol, % v/v (yeast [2]; 47 h): 10.30 % v/v | HPLC ethanol, % v/v (yeast [2]; 55 h): 10.94 % v/v | HPLC ethanol, % v/v (yeast [2]; 119 h): 14.61 % v/v

B1: Candida antarctica lipase inactive: Candida antarctica lipase inactivated by boiling for three hours (protein, UniProt P41365 26-342, looked up)
Lipase B: LPSGSDPAFSQPKSVLDAGLTCQGASPSSVSKPILLVPGTGTTGPQSFDSNWIPLSTQLGYTPCWISPPPFMLNDTQVNTEYMVNAITALYAGSGNNKLPVLTWSQGGLVAQWGLTFFPSIRSKVDRLMAFAPDYKGTVLAGPLDALAVSAPSVWQQTTGSALTTALRNAGGLTQIVPTTNLYSATDEIVQPQVSNSPLDSSYLFNGKNVQAQAVCGPLFVIDHAGSLTSQFSYVVGRSALRSTTGQARSADYGITDCNPLPANDLTPEQKVAAAALLAPAAAAIVAGPKQNCEPDLMPYARPFAVGKRTCSGIVTP
modifications: heat-inactivated by boiling
Calculated ethanol, % v/v (yeast [3]; 24 h): 11.43 ± 0.08 % v/v | Efficiency, % (yeast [3]; 24 h): 52.88 ± 0.40% | Calculated ethanol, % v/v (yeast [3]; 48 h): 16.88 ± 0.15 % v/v | Efficiency, % (yeast [3]; 48 h): 83.18 ± 0.89% | Efficiency, % (yeast [3]; 72 h): 90.89 ± 0.25% | HPLC ethanol, % v/v (yeast [3]; 72 h): 19.49 ± 0.04 % v/v | Calculated ethanol, % v/v (yeast [1]; 24 h): 10.59 ± 0.16 % v/v | Efficiency, % (yeast [1]; 24 h): 49.33 ± 0.85% | Calculated ethanol, % v/v (yeast [1]; 48 h): 16.91 ± 0.30 % v/v | Efficiency, % (yeast [1]; 48 h): 84.73 ± 1.77% | Calculated ethanol, % v/v (yeast [1]; 72 h): 18.65 ± 0.40 % v/v | Efficiency, % (yeast [1]; 72 h): 95.49 ± 2.53% | effect on ethanol yield and efficiency (Ethanol Red yeast [4]): no significant difference between ethanol yield of control samples and ethanol yield of samples treated with inactivated CALB

B2: Lipolase (purified): purified Lipolase, available from Novozymes A/S (protein, UniProt O59952 23-291, looked up)
Lipase: EVSQDLFNQFNLFAQYSAAAYCGKNNDAPAGTNITCTGNACPEVEKADATFLYSFEDSGVGDVTGFLALDNTNKLIVLSFRGSRSIENWIGNLNFDLKEINDICSGCRGHDGFTSSWRSVADTLRQKVEDAVREHPDYRVVFTGHSLGGALATVAGADLRGNGYDIDVFSYGAPRVGNRAFAEFLTVQTGGTLYRITHTNDIVPRLPPREFGYSHSSPEYWIKSGTLVPVTRNDIVKIEGIDATGGNNQPNIPDIPAHLWYFGLIGTCL
Change, % v/v vs. control (efficiency) (Ethanol Red yeast [5]; 1 LU/g DS): +1.00 % v/v | Change, % v/v vs. control (ethanol) (Ethanol Red yeast [5]; 1 LU/g DS): +0.31 % v/v | Efficiency, % (Ethanol Red yeast [5]; 1 LU/g DS): 84.00% | Ethanol, % v/v in beer (Ethanol Red yeast [5]; 1 LU/g DS): 18.41 % v/v | Change, % v/v vs. control (efficiency) (Ethanol Red yeast [5]; 10 LU/g DS): +0.49 % v/v | Change, % v/v vs. control (ethanol) (Ethanol Red yeast [5]; 10 LU/g DS): +0.52 % v/v | Efficiency, % (Ethanol Red yeast [5]; 10 LU/g DS): 83.49% | Ethanol, % v/v in beer (Ethanol Red yeast [5]; 10 LU/g DS): 18.62 % v/v | Change, % v/v vs. control (efficiency) (Ethanol Red yeast [5]; 100 LU/g DS): +0.57 % v/v | Change, % v/v vs. control (ethanol) (Ethanol Red yeast [5]; 100 LU/g DS): +0.14 % v/v | Efficiency, % (Ethanol Red yeast [5]; 100 LU/g DS): 83.57% | Ethanol, % v/v in beer (Ethanol Red yeast [5]; 100 LU/g DS): 18.24 % v/v
